Measured values from the RNAGym collection of RNA variant scans (doi:10.1021/acssynbio.7b00057).

B1: Pistol ribozyme (parent)
chain: GGGUCGUUGUUCCAUAAUCGCGUGGAUAUGGCACGCAAGUUUCUACCGGGCACCGUAAAUGUCCGACUGGAGCCGUUCGGGCGGCUAUAAACAGACCUCAGGCCCGAAGCGUGGCGGCACCUGCCGCCGGUGGUAAAAAAGAUCGGAAGAGCACACGUCU

Variants of: B1
Test: aptazyme ON/OFF ratio, guanine; higher = stronger switching; co-transcriptional cleavage with and without guanine
For U8A U10C U11C C12U C13G, the “aptazyme ON/OFF ratio” value was 1.06. In the case of U8C G9A U10G U11A C13U, the “aptazyme ON/OFF ratio” value is reported as 1.02. In the case of U7G U8C G9C C12G C13U, the “aptazyme ON/OFF ratio” value is reported as 1.09. With U8A G9A U10C U11C C12U the “aptazyme ON/OFF ratio” value was 1.07. With U7G U8G G9C U10C U11C C13G the “aptazyme ON/OFF ratio” value was 1.04. With U7A U8C G9A U10A U11G the “aptazyme ON/OFF ratio” value was 1.26. For U7C U8A U10C U11G C12A C13U, the “aptazyme ON/OFF ratio” value was 1.14. For U7A G9U U11C C12G C13U, the “aptazyme ON/OFF ratio” value was 1.12. In the case of U7C U8A G9U U11C C12G C13A, the “aptazyme ON/OFF ratio” value is reported as 1.17. With U7C U8C G9U U10A C12A C13A the “aptazyme ON/OFF ratio” value was 1.2. For U7C U8A U11A C12A C13A, the “aptazyme ON/OFF ratio” value was 1.12. In the case of U7G U8C G9C U10G U11G C12A C13U, the “aptazyme ON/OFF ratio” value is reported as 1.1. In the case of U7G U8A U10G U11G C12U C13A, the “aptazyme ON/OFF ratio” value is reported as 1.44. For U7A G9C U10A U11G C12G C13U, the “aptazyme ON/OFF ratio” value was 1.18. In the case of U7C U8A G9A U10C C12U C13G, the “aptazyme ON/OFF ratio” value is reported as 1.11. In the case of U7A U8C G9C U10C U11G C12U, the “aptazyme ON/OFF ratio” value is reported as 1.06. In the case of U8G G9U U10G C12G C13A, the “aptazyme ON/OFF ratio” value is reported as 1.02. For U7A G9U U10C C12A, the “aptazyme ON/OFF ratio” value was 1.14. In the case of U7G U8G G9U U10A U11G C12G C13U, the “aptazyme ON/OFF ratio” value is reported as 1.05. In the case of U7A G9C U10C U11A, the “aptazyme ON/OFF ratio” value is reported as 1.07. In the case of U7G U8G G9U U10G C12A C13G, the “aptazyme ON/OFF ratio” value is reported as 1.14. In the case of U7G U10G U11A C13G, the “aptazyme ON/OFF ratio” value is reported as 1.07. With U7C U8A G9U U10A U11A C12G the “aptazyme ON/OFF ratio” value was 1.17. In the case of U7A U8C G9C U10A C12G C13U, the “aptazyme ON/OFF ratio” value is reported as 1.17. For U7C U8G G9C U10C U11C C12U C13U, the “aptazyme ON/OFF ratio” value was 1.03. For U7G U8G G9A U10C U11A C12G, the “aptazyme ON/OFF ratio” value was 1.21. For U8A G9A U10A U11C C13A, the “aptazyme ON/OFF ratio” value was 1.04. For U7C U8A G9A U10C U11C C12A, the “aptazyme ON/OFF ratio” value was 1.09. With G9U U10G U11A C12U C13G the “aptazyme ON/OFF ratio” value was 1.24. In the case of U7C U8C G9U U10A C12U C13G, the “aptazyme ON/OFF ratio” value is reported as 1.14. In the case of U7C U8G G9U C12U, the “aptazyme ON/OFF ratio” value is reported as 1.97. For U7G U8A G9U U10A U11A C12A C13G, the “aptazyme ON/OFF ratio” value was 1.08. In the case of U7C U8C U11A C12A C13G, the “aptazyme ON/OFF ratio” value is reported as 1.15. In the case of U7A U8C U10A U11G C12G C13U, the “aptazyme ON/OFF ratio” value is reported as 1.45. For U7A U8C U10C U11G C12U C13G, the “aptazyme ON/OFF ratio” value was 1.16. For U7G U8C U10C U11G C12U C13A, the “aptazyme ON/OFF ratio” value was 1.29. With U7C U8A G9C U10A U11A C12A C13A the “aptazyme ON/OFF ratio” value was 1.19. In the case of U7G U8A U11A C12G, the “aptazyme ON/OFF ratio” value is reported as 1.22. In the case of U7A U8G U10G U11C C12A C13U, the “aptazyme ON/OFF ratio” value is reported as 1.51. In the case of U7A U8C G9A U10C U11A C12A C13U, the “aptazyme ON/OFF ratio” value is reported as 1.19. In the case of U8C G9U U11G C12G, the “aptazyme ON/OFF ratio” value is reported as 1.2. For U8C G9C U10C U11C C12A C13A, the “aptazyme ON/OFF ratio” value was 1.02. For U7G U8G G9C U10C U11A C12G, the “aptazyme ON/OFF ratio” value was 1.32. With U7C U8C G9C U10A C12U C13U the “aptazyme ON/OFF ratio” value was 1.11. For U7C U8C U10C C12A C13G, the “aptazyme ON/OFF ratio” value was 1.14. In the case of U7G U8G G9U U10A U11A C12G C13A, the “aptazyme ON/OFF ratio” value is reported as 1.2. With G9A U11A C12G the “aptazyme ON/OFF ratio” value was 1.51. For U7C G9U U10G U11A C12G C13G, the “aptazyme ON/OFF ratio” value was 1.24. With U7A G9A U11A C13A the “aptazyme ON/OFF ratio” value was 1.17. In the case of U7C U8G U10C U11C C12A C13G, the “aptazyme ON/OFF ratio” value is reported as 1.14. In the case of U8G G9U U10G U11C C12U C13A, the “aptazyme ON/OFF ratio” value is reported as 1.03. With U8A G9C U10A U11G C12U the “aptazyme ON/OFF ratio” value was 1.25. In the case of U7G G9C U10A C12G C13A, the “aptazyme ON/OFF ratio” value is reported as 1.1. With U7G U8G G9C U10G U11C C12A C13A the “aptazyme ON/OFF ratio” value was 1.1. For U8G U10G U11G C12G C13A, the “aptazyme ON/OFF ratio” value was 1.15. With U7C G9A U10C U11C C12G C13A the “aptazyme ON/OFF ratio” value was 1.09. With U7A U8C G9A U10A U11A C13G the “aptazyme ON/OFF ratio” value was 1.12. With U8G G9C U10A C12U C13G the “aptazyme ON/OFF ratio” value was 1.1. With U8C U10C U11C C12G C13G the “aptazyme ON/OFF ratio” value was 1.35. In the case of U7A G9U U10G U11C C12G C13U, the “aptazyme ON/OFF ratio” value is reported as 1.31. With U7C U8A U10C U11G C12G C13G the “aptazyme ON/OFF ratio” value was 1.08. In the case of U8C G9U U10G C13G, the “aptazyme ON/OFF ratio” value is reported as 1.21. With U7C U8A G9A U10A U11G C12U C13U the “aptazyme ON/OFF ratio” value was 1.22. With U7G U8G U10A U11A C12A the “aptazyme ON/OFF ratio” value was 1.13. With U7G U8C G9U U10G U11G C12G C13A the “aptazyme ON/OFF ratio” value was 1.11. In the case of U7G U10A U11A C12A C13A, the “aptazyme ON/OFF ratio” value is reported as 1.14. In the case of U7A U8G G9U U10C U11A C12G C13U, the “aptazyme ON/OFF ratio” value is reported as 1.37. In the case of U7G G9C U11G C12G C13U, the “aptazyme ON/OFF ratio” value is reported as 1.29. For U7C U8G G9C U11A C12A C13A, the “aptazyme ON/OFF ratio” value was 1.15. With U7C U8C G9A U10A U11A the “aptazyme ON/OFF ratio” value was 3.49. In the case of U7A U8A G9C U10A U11A C13U, the “aptazyme ON/OFF ratio” value is reported as 1.27. For U7G G9C U10A C12G, the “aptazyme ON/OFF ratio” value was 1.4. In the case of U7A U8A G9A U10G C12U C13U, the “aptazyme ON/OFF ratio” value is reported as 0.929. With U8C G9A U10A C12U the “aptazyme ON/OFF ratio” value was 1.31. In the case of U7A G9U U10A U11C C12A C13G, the “aptazyme ON/OFF ratio” value is reported as 1.24. For U7A U8A G9U U10G U11A C12G C13U, the “aptazyme ON/OFF ratio” value was 1.51. With U7C U8G U11G C12U the “aptazyme ON/OFF ratio” value was 1.19. For U7G U8C G9C U10A C12G C13G, the “aptazyme ON/OFF ratio” value was 1.05. For U7G U8A G9U U10G U11G C12G C13G, the “aptazyme ON/OFF ratio” value was 1.24. For U8G G9U U10A C12U C13G, the “aptazyme ON/OFF ratio” value was 1.19. With U7A U8G G9A C13U the “aptazyme ON/OFF ratio” value was 1.39. In the case of U8C G9A U10G U11A, the “aptazyme ON/OFF ratio” value is reported as 1.02. For U7C U8A G9U U10C U11A, the “aptazyme ON/OFF ratio” value was 1.27. With U7A U8C G9U U10A U11C C12U the “aptazyme ON/OFF ratio” value was 1.04.
